Experimental data reported in paper PMC11796124.

Target: DP71L-Flag (Flag-tagged ASFV DP71L), expressed in HEK293T cells
Conditions: parent: est. 0.52; read off a plot

## STING-Strep (Strep-tagged STING) (from UniProt Q86WV6) L374A
  response (Relative IntDEN to β-actin): 0.14

## STING-Strep (Strep-tagged STING) (from UniProt Q86WV6) R375A
  response (Relative IntDEN to β-actin): 0.04
